Measurements as given in the supplement of paper PMC10567573.

B1: MYOZ1 (parent)
chain: FSDSSMDHFQKFLPTVGGQLGTAG

Variants of: B1
Test: protein stability index of a GFP-peptide fusion (GPS, HEK-293T) (PSI 1-6); higher = more stable
Conditions: c terminus: a fixed tail appended
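Note: lentivirally expressed fusions sorted by FACS into six bins by GFP to DsRed ratio, PSI derived from sequencing read proportions per bin multiplied by bin number.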

Variant | protein stability index
FSDSSMDHFQKFLPTVGGNLGTAG [Q19N] | 2.08
FSDSSMDHFQKFLPTVGGILGTAG [Q19I] | 2.01
FSDSSMDHFQKFLPTVGGSLGTAG [Q19S] | 2.2
FSDSSMDHFQKFLPTVGGYLGTAG [Q19Y] | 2.04
FSDSSMDHFQKFLPTVGGHLGTAG [Q19H] | 1.74
FSDSSMDHFQKFLPTVGGTLGTAG [Q19T] | 2.29
FSDSSMDHFQKFLPTVGGCLGTAG [Q19C] | 1.96
FSDSSMDHFQKFLPTVGGRLGTAG [Q19R] | 3.06
FSDSSMDHFQKFLPTVGGMLGTAG [Q19M] | 2.03
FSDSSMDHFQKFLPTVGGGLGTAG [Q19G] | 2.05
FSDSSMDHFQKFLPTVGGPLGTAG [Q19P] | 2.51
FSDSSMDHFQKFLPTVGGELGTAG [Q19E] | 3.12
FSDSSMDHFQKFLPTVGGALGTAG [Q19A] | 1.79
FSDSSMDHFQKFLPTVGGVLGTAG [Q19V] | 1.89
FSDSSMDHFQKFLPTVGGWLGTAG [Q19W] | 2.35
FSDSSMDHFQKFLPTVGGKLGTAG [Q19K] | 2.33
FSDSSMDHFQKFLPTVGGDLGTAG [Q19D] | 2.58
FSDSSMDHFQKFLPTVGGLLGTAG [Q19L] | 2.16
FSDSSMDHFQKFLPTVGGFLGTAG [Q19F] | 1.42
FSDSSMDHFQKFLPTVGGQDGTAG [L20D] | 3.24
FSDSSMDHFQKFLPTVGGQIGTAG [L20I] | 2.69
FSDSSMDHFQKFLPTVGGQNGTAG [L20N] | 2.97
FSDSSMDHFQKFLPTVGGQWGTAG [L20W] | 1.56
FSDSSMDHFQKFLPTVGGQHGTAG [L20H] | 2.79

Variant | protein stability index
FSDSSMDHFQKFLPTVGGQCGTAG [L20C] | 1.66
FSDSSMDHFQKFLPTVGGQAGTAG [L20A] | 2.58
FSDSSMDHFQKFLPTVGGQPGTAG [L20P] | 3.12
FSDSSMDHFQKFLPTVGGQGGTAG [L20G] | 3.24
FSDSSMDHFQKFLPTVGGQVGTAG [L20V] | 2.25
FSDSSMDHFQKFLPTVGGQMGTAG [L20M] | 2.35
FSDSSMDHFQKFLPTVGGQSGTAG [L20S] | 3.71
FSDSSMDHFQKFLPTVGGQRGTAG [L20R] | 2.98
FSDSSMDHFQKFLPTVGGQEGTAG [L20E] | 3.51
FSDSSMDHFQKFLPTVGGQFGTAG [L20F] | 2.25
FSDSSMDHFQKFLPTVGGQKGTAG [L20K] | 3.1
FSDSSMDHFQKFLPTVGGQTGTAG [L20T] | 2.53
FSDSSMDHFQKFLPTVGGQYGTAG [L20Y] | 2.27
FSDSSMDHFQKFLPTVGGQQGTAG [L20Q] | 2.66
FSDSSMDHFQKFLPTVEGQLGTAG [G17E] | 2.98
FSDSSMDHFQKFLPTVRGQLGTAG [G17R] | 1.92
FSDSSMDHFQKFLPTVTGQLGTAG [G17T] | 2.56
FSDSSMDHFQKFLPTVPGQLGTAG [G17P] | 2.59
FSDSSMDHFQKFLPTVMGQLGTAG [G17M] | 2.06
FSDSSMDHFQKFLPTVKGQLGTAG [G17K] | 2.02
FSDSSMDHFQKFLPTVAGQLGTAG [G17A] | 2.48
FSDSSMDHFQKFLPTVCGQLGTAG [G17C] | 1.97
FSDSSMDHFQKFLPTVVGQLGTAG [G17V] | 2.38
FSDSSMDHFQKFLPTVWGQLGTAG [G17W] | 2.03

Variant | protein stability index
FSDSSMDHFQKFLPTVQGQLGTAG [G17Q] | 2.53
FSDSSMDHFQKFLPTVIGQLGTAG [G17I] | 2.47
FSDSSMDHFQKFLPTVNGQLGTAG [G17N] | 2.98
FSDSSMDHFQKFLPTVLGQLGTAG [G17L] | 1.56
FSDSSMDHFQKFLPTVFGQLGTAG [G17F] | 1.85
FSDSSMDHFQKFLPTVDGQLGTAG [G17D] | 2.33
FSDSSMDHFQKFLPTVHGQLGTAG [G17H] | 2.47
FSDSSMDHFQKFLPTVSGQLGTAG [G17S] | 2.26
FSDSSMDHFQKFLPTVYGQLGTAG [G17Y] | 2.26
FSDSSMDHFQKFLPTVGGQLGTGG [A23G] | 2.77
FSDSSMDHFQKFLPTVGGQLGTFG [A23F] | 2.49
FSDSSMDHFQKFLPTVGGQLGTWG [A23W] | 2.01
FSDSSMDHFQKFLPTVGGQLGTKG [A23K] | 2.14
FSDSSMDHFQKFLPTVGGQLGTYG [A23Y] | 2.19
FSDSSMDHFQKFLPTVGGQLGTEG [A23E] | 2.92
FSDSSMDHFQKFLPTVGGQLGTSG [A23S] | 1.83
FSDSSMDHFQKFLPTVGGQLGTPG [A23P] | 2.22
FSDSSMDHFQKFLPTVGGQLGTCG [A23C] | 2.08
FSDSSMDHFQKFLPTVGGQLGTTG [A23T] | 2.59
FSDSSMDHFQKFLPTVGGQLGTRG [A23R] | 2.95
FSDSSMDHFQKFLPTVGGQLGTLG [A23L] | 2.01
FSDSSMDHFQKFLPTVGGQLGTMG [A23M] | 1.63
FSDSSMDHFQKFLPTVGGQLGTHG [A23H] | 2.3
FSDSSMDHFQKFLPTVGGQLGTDG [A23D] | 2.68

Variant | protein stability index
FSDSSMDHFQKFLPTVGGQLGTIG [A23I] | 1.91
FSDSSMDHFQKFLPTVGGQLGTNG [A23N] | 2.68
FSDSSMDHFQKFLPTVGGQLGTQG [A23Q] | 2.62
FSDSSMDHFQKFLPSVGGQLGTAG [T15S] | 2.93
FSDSSMDHFQKFLPPVGGQLGTAG [T15P] | 2.51
FSDSSMDHFQKFLPMVGGQLGTAG [T15M] | 1.85
FSDSSMDHFQKFLPLVGGQLGTAG [T15L] | 1.9
FSDSSMDHFQKFLPEVGGQLGTAG [T15E] | 2.5
FSDSSMDHFQKFLPAVGGQLGTAG [T15A] | 2.64
FSDSSMDHFQKFLPCVGGQLGTAG [T15C] | 2.33
FSDSSMDHFQKFLPIVGGQLGTAG [T15I] | 2.43
FSDSSMDHFQKFLPNVGGQLGTAG [T15N] | 1.7
FSDSSMDHFQKFLPRVGGQLGTAG [T15R] | 2.08
FSDSSMDHFQKFLPWVGGQLGTAG [T15W] | 1.33
FSDSSMDHFQKFLPKVGGQLGTAG [T15K] | 2.64
FSDSSMDHFQKFLPQVGGQLGTAG [T15Q] | 2.94
FSDSSMDHFQKFLPFVGGQLGTAG [T15F] | 2.13
FSDSSMDHFQKFLPDVGGQLGTAG [T15D] | 2.61
FSDSSMDHFQKFLPHVGGQLGTAG [T15H] | 2.69
FSDSSMDHFQKFLPGVGGQLGTAG [T15G] | 2.46
FSDSSMDHFQKFLPVVGGQLGTAG [T15V] | 2.66
FSDSSMDHFQKFLPYVGGQLGTAG [T15Y] | 1.93
